The values below come from publication PMC9130567.

As usually defined, the Kd is the concentration at which binding is half-saturated. A high value points to a looser complex.

This assay has as its target Human properdin (factor P) (human) (UniProt P27918). In words: SPR; FP immobilised by amine coupling to 79.55 RU; FXI or FXIa injected by OneStep gradient, maximum 50 nM, 30 uL/min, dissociation 300 s; Pall/ForteBio Pioneer; run in triplicate. (In general: Surface plasmon resonance follows binding to a sensor surface in real time, without labels.)
UniProt P27918, sequence (P27918 28-469): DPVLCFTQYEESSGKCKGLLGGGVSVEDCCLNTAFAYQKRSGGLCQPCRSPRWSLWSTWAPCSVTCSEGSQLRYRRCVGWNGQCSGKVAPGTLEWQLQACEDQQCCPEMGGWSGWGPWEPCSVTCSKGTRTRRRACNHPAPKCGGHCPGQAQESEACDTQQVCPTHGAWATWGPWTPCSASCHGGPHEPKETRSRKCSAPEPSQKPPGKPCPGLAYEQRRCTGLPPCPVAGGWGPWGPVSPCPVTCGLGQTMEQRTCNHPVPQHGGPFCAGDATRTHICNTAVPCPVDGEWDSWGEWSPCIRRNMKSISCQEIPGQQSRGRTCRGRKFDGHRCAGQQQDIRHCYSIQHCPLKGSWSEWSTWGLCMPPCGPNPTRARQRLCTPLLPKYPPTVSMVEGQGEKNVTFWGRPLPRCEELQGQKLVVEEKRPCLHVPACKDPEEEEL

In the case of “Human activated coagulation factor XI (preactivated by FXIIa) (enzyme)”, the Kd was 0.35 nM.

“Human coagulation factor XI zymogen (natural protein)”: the Kd was determined as 16.1 nM.
